Assays:
MraZ [1] = molecular target: T1, MraZ (UniProt Q7NB78 1-142); test: EMSA; strength comparable to own site; 20 mM Tris-HCl pH 7.5, 100 mM KCl, 6% glycerol, 15 min at 37 °C; 20 pmol protein with 10 pmol dsDNA; 6% acrylamide gel, TB buffer pH 8.3, 10 °C, EtBr stain; settings: protein: recombinant; chain copies: 8
T1 sequence: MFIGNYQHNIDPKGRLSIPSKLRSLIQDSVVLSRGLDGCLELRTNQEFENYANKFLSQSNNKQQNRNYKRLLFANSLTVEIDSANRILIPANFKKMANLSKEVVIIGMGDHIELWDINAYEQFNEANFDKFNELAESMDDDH

[2] = molecular target: T2, HsdC (controller protein of type I RM-system) (Mycoplasma gallisepticum S6, UniProt A0A0F6CKR7 1-64); test: EMSA titration; printed as binding constant; 20 mM Tris-HCl pH 7.5, 100 mM KCl, 6% glycerol, 15 min at 37 °C; 20 pmol protein with 10 pmol dsDNA; 6% acrylamide gel, TB buffer pH 8.3, 10 °C, EtBr stain; settings: protein: recombinant; tags: C-terminal His-tag (pETm); chain copies: 2
MraZ [3] = molecular target: T1, MraZ; test: EMSA; control; 20 mM Tris-HCl pH 7.5, 100 mM KCl, 6% glycerol, 15 min at 37 °C; 20 pmol protein with 10 pmol dsDNA; 6% acrylamide gel, TB buffer pH 8.3, 10 °C, EtBr stain; settings: protein: recombinant; chain copies: 8
[4] = molecular target: T2, HsdC (controller protein of type I …); test: EMSA; similar or slightly weaker than PhsdC; 20 mM Tris-HCl pH 7.5, 100 mM KCl, 6% glycerol, 15 min at 37 °C; 20 pmol protein with 10 pmol dsDNA; 6% acrylamide gel, TB buffer pH 8.3, 10 °C, EtBr stain; settings: protein: recombinant; tags: C-terminal His-tag (pETm); chain copies: 2

B1: PhsdC-WT (dsDNA)
DNA 1: TTATCGGCTTTGTGTTAAAATAGTGTTAACGATTTTGAAG
DNA 2: CTTCAAAATCGTTAACACTATTTTAACACAAAGCCGATAA
In the case of B1, the binding result (MraZ [1]) is reported as “binds” and the Kd [2] is reported as about 5 nM.

B2: PmraZ (dsDNA)
DNA 1: AATTCAAAAGTGTTAAAAAGTGTGAGAAAGTGGGAAAAAT
DNA 2: ATTTTTCCCACTTTCTCACACTTTTTAACACTTTTGAATT
B2: binds (MraZ [3]).

B3: PtrnM (dsDNA)
DNA 1: ATTGTTATTATATGATAATAATGTGTAACACATCGCGGGA
DNA 2: TCCCGCGATGTGTTACACATTATTATCATATAATAACAAT
B3: binds [4].

B4: PclpB (dsDNA)
DNA 1: TAATAGCCTAAGTGCTAATTTTTTGTTATAATAAATCTAT
DNA 2: ATAGATTTATTATAACAAAAAATTAGCACTTAGGCTATTA
B4: binds [4].
